Reference: patent publication US20230312709A1 (GUANGDONG FEIPENG PHARMACEUTICAL, published 2023)
Read-outs that look alike come from different tables or passages of the source.

Tests used:
[1] = biological target: T1, monkey CD47 on CHO-cynoCD47 cells (monkey); assay: flow cytometry on CHO-cynoCD47 cells, MFI curve
T1 construct: whole, on cells; Cell line named CHO-cynoCD47; the text calls the species 'monkey'
Method: Then, the cells were washed at least twice, a PE Goat anti human IgG Fc (1:500× dilution) fluorescent secondary antibody was prepared with a FCM buffer (1×PBS+3% BSA), added to a corresponding 96-well plate according to 100 μL/well, and incubated in a refrigerator at 4° C. for 30 min. The 96-well plate was taken out, and centrifuged at 250 g for 5 min, after a supernatant was carefully removed, the FCM buffer was added at 200 μL/well, and it was centrifuged again at 250 g for 5 min, the supernatant was carefully removed. The cells were washed at least twice and resuspended with 1×PBS at 100 μL/well, and analyzed by the flow cytometry, and a concentration-dependent curve was fitted with GraphPad according to MFI thereof.

[2] = biological target: T2, human CD47 on CCRF-CEM cells (human, UniProt Q08722 19-323); assay: flow cytometry competition on CCRF-CEM cells; blocked ligand hSIRPα-mFC, detected with PE goat anti-mouse IgG Fc
T2 construct: whole, on cells

[3] = biological target: T2, human CD47 on CCRF-CEM cells; assay: flow cytometry on CCRF-CEM cells, MFI curve
Method: The specific steps were as follows.
A cell line CCRF-CEM (Cell Bank of Chinese Academy of Sciences, Shanghai) expressing human CD47 was used, which belongs to human acute lymphoblastic leukemia T lymphocytes. […] Then, the cells were washed at least twice, a PE Goat anti human IgG Fc (1:500× dilution) fluorescent secondary antibody was prepared with a FCM buffer (1×PBS+3% BSA), added to a corresponding 96-well plate according to 100 μL/well, and incubated in a refrigerator at 4° C. for 30 min. The 96-well plate was taken out, and centrifuged at 250 g for 5 min, after a supernatant was carefully removed, the FCM buffer was added at 200 μL/well, and it was centrifuged again at 250 g for 5 min, the supernatant was carefully removed. The cells were washed at least twice and resuspended using 100 μL/well 1×PBS, and analyzed by the flow cytometry, and a concentration-dependent curve was fitted with GraphPad according to the mean fluorescence intensity (MFI) thereof.

[4] = biological target: T3, hCD47-ECD-HIS recombinant protein (human, UniProt Q08722 19-139, limits assumed); assay: BLI (ForteBio), antibody on AHC sensor, 100 nM CD47 antigen, 1:1 model
T3 construct: extracellular domain; also called hCD47 antigen; CD47 antigen
Method: An equilibrium dissociation constant (KD) of the antibody of the present application binding to human CD47 (hCD47) was determined by a biofilm interferometry (ForteBio). […] Kinetic analysis was performed with a 1:1 binding model.

[5] = biological target: T2, human CD47 on CCRF-CEM cells; assay: flow cytometry competition on CCRF-CEM cells; blocked ligand hSIRPα-mFC, detected with PE goat anti-mouse IgG Fc; remark: listed apart in the source

Row | Binder | EC50 [1] [nM] | IC50 (read off the curve) [2] [nM] | EC50 [3] [nM] | Kd [4] [nM] | IC50 (read off the curve) [5] [nM] | koff [4] [s⁻¹] | kon [4] [M⁻¹ s⁻¹]
1 | 7A11H32 (antibody, V domains shown, also called CD47 antibody) VH: QVQLVQSGAEVKKPGSSVKVSCKASGSSFTSNWMNWVRQAPGQGLEWIGMIHPSDSETRLNQKFKDRVTITADKSTSTAYMELSSLRSEDTAVYYCARGTTVVDAFAYWGQGTTVTVSS VL: DIQMTQSPSSLSASVGDRVTMTCKSSQSLLNSRTRKNYLAWYQQKPGKAPKLLIYWASTRESGVPSRFSGSGSGTDFTLTISSLQPEDFATYYCKQSYNLRTFGGGTKLEIK | 17.1 | ~2 | 0.717 | – | – | – | –
2 | 7A11H35 (antibody, V domains shown, also called CD47 antibody) VH: QVQLVQSGAEVKKPGSSVKVSCKASGSSFTSNWMNWVRQAPGQGLEWIGMIHPSDSETRLNQKFKDRVTITADKSTSTAYMELSSLRSEDTAVYYCARGTTVVDAFAYWGQGTTVTVSS VL: EIVMTQSPPTLSLSPGERVTMSCKSSQSLLNSRTRKNYLAWYQQKPGQAPRLLIYWASTRESGIPARFSGSGSGTDFTLTISSLQPEDFAVYYCKQSYNLRTFGGGTKLEIK | 4.38 | – | 0.862 | 0.881 | – | – | –
3 | 7A11H14 (antibody, V domains shown, also called CD47 antibody) VH: QVQLVQPGAEVKKPGASVKLSCKASGSSFTSNWMNWVRQAPGQGLEWIGMIHPSDSETRLNQKFKDRATLTVDKSTSTAYMELSSPRSEDTAVYYCARGTTVVDAFAYWGQGTTVTVSS VL: DIVMTQSPDSLAVSLGERATMNCKSSQSLLNTRTRKNYLAWYQQKPGQPPKLLIYWASTRESGVPDRFSGSGSGTDFTLTISSLQAEDVAVYYCKQSYNLRTFGGGTKLEIK | 4.96 | – | 0.933 | 0.562 | – | – | –
4 | 7A11H11 (antibody, V domains shown, also called CD47 antibody) VH: QVQLVQPGAEVKKPGASVKLSCKASGSSFTSNWMNWVRQAPGQGLEWIGMIHPSDSETRLNQKFKDRATLTVDKSTSTAYMELSSPRSEDTAVYYCARGTTVVDAFAYWGQGTTVTVSS VL: DIVMTQSPDSLAVSLGERATMNCKSSQSLLNSRTRKNYLAWYQQKPGQPPKLLIYWASTRESGVPDRFSGSGSGTDFTLTISSLQAEDVAVYYCKQSYNLRTFGGGTKLEIK | 8.93 | ~2 | 0.822 | 0.59 | – | – | –
5 | 7A11H33 (antibody, V domains shown, also called CD47 antibody) VH: QVQLVQSGAEVKKPGSSVKVSCKASGSSFTSNWMNWVRQAPGQGLEWIGMIHPSDSETRLNQKFKDRVTITADKSTSTAYMELSSLRSEDTAVYYCARGTTVVDAFAYWGQGTTVTVSS VL: DIQMTQSPSSLSASVGDRVTMTCKSSQSLLNTRTRKNYLAWYQQKPGKAPKLLIYWASTRESGVPSRFSGSGSGTDFTLTISSLQPEDFATYYCKQSYNLRTFGGGTKLEIK | 4.85 | – | 0.76 | 0.36 | – | – | –
6 | 7A11H34 (antibody, V domains shown, also called CD47 antibody) VH: QVQLVQSGAEVKKPGSSVKVSCKASGSSFTSNWMNWVRQAPGQGLEWIGMIHPSDSETRLNQKFKDRVTITADKSTSTAYMELSSLRSEDTAVYYCARGTTVVDAFAYWGQGTTVTVSS VL: DIVMTQSPDSLAVSLGERATMNCKSSQSLLNTRTRKNYLAWYQQKPGQPPKLLIYWASTRESGVPDRFSGSGSGTDFTLTISSLQAEDVAVYYCKQSYNLRTFGGGTKLEIK | 8.61 | – | 1.2 | – | – | – | –

More lines, in order of falling EC50 [1], values ahead:

Row | EC50 [1] [nM] | IC50 (read off the curve) [2] [nM] | EC50 [3] [nM] | Kd [4] [nM] | IC50 (read off the curve) [5] [nM] | koff [4] [s⁻¹] | kon [4] [M⁻¹ s⁻¹] | Binder
7 | 8.55 | ~2 | 0.82 | 0.74 | – | – | – | 7A11H22 (antibody, V domains shown, also called CD47 antibody) VH: QVQLVQSGAEVKKPGASVKVSCKASGSSFTSNWMNWVRQAPGQGLEWIGMIHPSDSETRLNQKFKDRATLTVDKSTSTAYMELSSLRSEDTAVYYCARGTTVVDAFAYWGQGTTVTVSS VL: DIQMTQSPSSLSASVGDRVTMTCKSSQSLLNSRTRKNYLAWYQQKPGKAPKLLIYWASTRESGVPSRFSGSGSGTDFTLTISSLQPEDFATYYCKQSYNLRTFGGGTKLEIK
8 | 7.35 | ~0.9 | 0.716 | 0.459 | – | – | – | 7A11H12 (antibody, V domains shown, also called CD47 antibody) VH: QVQLVQPGAEVKKPGASVKLSCKASGSSFTSNWMNWVRQAPGQGLEWIGMIHPSDSETRLNQKFKDRATLTVDKSTSTAYMELSSPRSEDTAVYYCARGTTVVDAFAYWGQGTTVTVSS VL: DIQMTQSPSSLSASVGDRVTMTCKSSQSLLNSRTRKNYLAWYQQKPGKAPKLLIYWASTRESGVPSRFSGSGSGTDFTLTISSLQPEDFATYYCKQSYNLRTFGGGTKLEIK
9 | 7.27 | – | 0.723 | 0.212 | ~2 | 0.000313 | 1.48e+06 | 7A11H15 (antibody, V domains shown, also called CD47 antibody) VH: QVQLVQPGAEVKKPGASVKLSCKASGSSFTSNWMNWVRQAPGQGLEWIGMIHPSDSETRLNQKFKDRATLTVDKSTSTAYMELSSPRSEDTAVYYCARGTTVVDAFAYWGQGTTVTVSS VL: EIVMTQSPPTLSLSPGERVTMSCKSSQSLLNSRTRKNYLAWYQQKPGQAPRLLIYWASTRESGIPARFSGSGSGTDFTLTISSLQPEDFAVYYCKQSYNLRTFGGGTKLEIK
10 | 5.12 | – | – | – | – | – | – | Hu5F9-G4 (antibody, V domains shown) VH: QVQLVQSGAEVKKPGASVKVSCKASGYTFTNYNMHWVRQAPGQRLEWMGTIYPGNDDTSYNQKFKDRVTITADTSASTAYMELSSLRSEDTAVYYCARGGYRAMDYWGQGTLVTVSS VL: DIVMTQSPLSLPVTPGEPASISCRSSQSIVYSNGNTYLGWYLQKPGQSPQLLIYKVSNRFSGVPDRFSGSGSGTDFTLKISRVEAEDVGVYYCFQGSHVPYTFGQGTKLEIKR
11 | 5 | ~2 | 0.727 | 0.309 | – | – | – | 7A11H42 (antibody, V domains shown, also called CD47 antibody) VH: QVQLVQSGAEVKKPGSSVKVSCKASGSSFTSNWMNWVRQAPGQGLEWIGMIHPSDSETRLNQKFQGRVTITADKSTSTAYMELSSLRSEDTAVYYCARGTTVVDAFAYWGQGTTVTVSS VL: DIQMTQSPSSLSASVGDRVTMTCKSSQSLLNSRTRKNYLAWYQQKPGKAPKLLIYWASTRESGVPSRFSGSGSGTDFTLTISSLQPEDFATYYCKQSYNLRTFGGGTKLEIK
12 | 4.62 | – | 1.21 | – | – | – | – | 7A11H55 (antibody, V domains shown, also called CD47 antibody) VH: QVQLVQSGAEVKKPGSSVKVSCKASGGTFTSNWMNWVRQAPGQGLEWIGMIHPSDSETRLNQKFQGRVTITADKSTSTAYMELSSLRSEDTAVYYCARGTTVVDAFAYWGQGTTVTVSS VL: EIVMTQSPPTLSLSPGERVTMSCKSSQSLLNSRTRKNYLAWYQQKPGQAPRLLIYWASTRESGIPARFSGSGSGTDFTLTISSLQPEDFAVYYCKQSYNLRTFGGGTKLEIK
13 | 4.51 | – | 0.915 | – | – | – | – | 7A11H52 (antibody, V domains shown, also called CD47 antibody) VH: QVQLVQSGAEVKKPGSSVKVSCKASGGTFTSNWMNWVRQAPGQGLEWIGMIHPSDSETRLNQKFQGRVTITADKSTSTAYMELSSLRSEDTAVYYCARGTTVVDAFAYWGQGTTVTVSS VL: DIQMTQSPSSLSASVGDRVTMTCKSSQSLLNSRTRKNYLAWYQQKPGKAPKLLIYWASTRESGVPSRFSGSGSGTDFTLTISSLQPEDFATYYCKQSYNLRTFGGGTKLEIK
